The source of these data is US20020159976A1.

For data set [1], the target named is bovine serum albumin (bovine) (UniProt P02769). In words: dot blot, ~1 ug ligand on nitrocellulose, 125I-labelled binder, autoradiograph density divided by Ponceau S density, mean of two dots.
For data set [2], the target named is fibronectin from human plasma (human) (UniProt P02751). The description is as above.
Data set [3] has as its target laminin from the basement membrane of Engelbreth-Holm-Swarm mouse sarcoma (mouse) (UniProt P19137). The data set is described as above.
For data set [4], the target named is type I collagen from calf skin (calf) (UniProt P02453). The description is as above.
Data set [5] concerns the target type III mucin partially purified from porcine stomach (porcine). The description is as above.
Data set [6] has as its target type IV collagen from human placenta (human) (UniProt P02462). The data set is described as above.
For data set [7], the target named is T1, casein peptide αs1-casein(1-17) (UniProt P02662).
T1 sequence: RPKHPIKHQGLPQEVLN

Chain of UniProt P02453 (P02453 162-1217, chain 1 of 2): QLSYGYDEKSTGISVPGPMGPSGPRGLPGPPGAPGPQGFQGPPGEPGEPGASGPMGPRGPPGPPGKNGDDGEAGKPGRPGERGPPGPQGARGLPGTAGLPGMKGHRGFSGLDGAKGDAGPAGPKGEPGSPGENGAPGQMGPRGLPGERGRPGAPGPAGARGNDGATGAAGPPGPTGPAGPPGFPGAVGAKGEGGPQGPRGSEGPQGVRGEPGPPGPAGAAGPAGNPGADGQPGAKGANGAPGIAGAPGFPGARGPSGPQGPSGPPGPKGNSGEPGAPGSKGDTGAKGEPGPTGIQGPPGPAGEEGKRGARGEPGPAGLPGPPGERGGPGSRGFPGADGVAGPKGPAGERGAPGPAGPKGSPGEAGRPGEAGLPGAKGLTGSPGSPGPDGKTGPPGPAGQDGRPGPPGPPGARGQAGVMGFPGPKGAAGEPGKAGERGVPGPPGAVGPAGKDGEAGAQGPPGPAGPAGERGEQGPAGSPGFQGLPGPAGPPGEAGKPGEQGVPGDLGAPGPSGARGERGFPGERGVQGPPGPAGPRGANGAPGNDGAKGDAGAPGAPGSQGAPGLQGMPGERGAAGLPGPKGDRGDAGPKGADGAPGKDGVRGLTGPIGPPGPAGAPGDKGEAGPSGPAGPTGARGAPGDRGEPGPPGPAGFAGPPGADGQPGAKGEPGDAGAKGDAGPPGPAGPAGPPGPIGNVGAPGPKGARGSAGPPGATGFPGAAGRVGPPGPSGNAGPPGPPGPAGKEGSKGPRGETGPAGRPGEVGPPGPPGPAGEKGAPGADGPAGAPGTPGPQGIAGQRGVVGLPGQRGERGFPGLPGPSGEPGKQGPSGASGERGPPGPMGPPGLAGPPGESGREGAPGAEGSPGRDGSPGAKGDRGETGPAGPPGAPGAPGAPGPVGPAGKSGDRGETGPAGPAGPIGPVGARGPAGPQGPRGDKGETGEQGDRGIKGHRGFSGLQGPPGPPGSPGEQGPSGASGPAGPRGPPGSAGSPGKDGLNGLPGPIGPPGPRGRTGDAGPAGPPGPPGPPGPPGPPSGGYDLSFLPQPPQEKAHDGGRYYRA
Chain of UniProt P02453 (P02465 80-1117, chain 2 of 2, further chain): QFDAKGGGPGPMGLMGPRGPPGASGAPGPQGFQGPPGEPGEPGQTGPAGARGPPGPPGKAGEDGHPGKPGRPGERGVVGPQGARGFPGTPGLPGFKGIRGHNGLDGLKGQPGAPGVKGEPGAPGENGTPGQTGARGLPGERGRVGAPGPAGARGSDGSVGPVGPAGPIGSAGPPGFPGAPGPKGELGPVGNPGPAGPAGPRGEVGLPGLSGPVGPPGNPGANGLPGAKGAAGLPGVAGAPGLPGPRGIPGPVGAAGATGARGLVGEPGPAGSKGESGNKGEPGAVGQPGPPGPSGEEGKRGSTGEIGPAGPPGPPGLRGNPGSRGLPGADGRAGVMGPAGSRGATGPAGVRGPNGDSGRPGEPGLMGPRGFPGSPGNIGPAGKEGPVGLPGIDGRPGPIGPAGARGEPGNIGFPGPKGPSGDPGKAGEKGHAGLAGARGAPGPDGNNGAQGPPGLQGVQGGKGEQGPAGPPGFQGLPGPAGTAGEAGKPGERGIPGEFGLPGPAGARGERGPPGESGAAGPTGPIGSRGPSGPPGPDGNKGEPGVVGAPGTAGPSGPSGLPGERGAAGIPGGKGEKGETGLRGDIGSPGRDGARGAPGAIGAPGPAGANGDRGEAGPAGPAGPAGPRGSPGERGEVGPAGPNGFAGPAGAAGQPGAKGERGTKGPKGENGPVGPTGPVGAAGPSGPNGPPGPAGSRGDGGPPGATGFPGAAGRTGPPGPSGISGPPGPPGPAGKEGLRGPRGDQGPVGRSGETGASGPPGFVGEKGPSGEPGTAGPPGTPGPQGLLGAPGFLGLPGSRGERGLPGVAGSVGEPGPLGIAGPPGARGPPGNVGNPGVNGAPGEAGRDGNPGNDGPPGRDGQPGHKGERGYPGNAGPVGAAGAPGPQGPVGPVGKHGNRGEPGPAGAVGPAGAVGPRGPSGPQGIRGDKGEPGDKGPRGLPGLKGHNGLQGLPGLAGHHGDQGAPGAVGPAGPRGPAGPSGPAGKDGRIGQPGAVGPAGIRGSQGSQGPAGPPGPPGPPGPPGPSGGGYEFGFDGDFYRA
Chain of UniProt P02751 (P02751 other isoform, or with tags, fused parts or gaps limits assumed): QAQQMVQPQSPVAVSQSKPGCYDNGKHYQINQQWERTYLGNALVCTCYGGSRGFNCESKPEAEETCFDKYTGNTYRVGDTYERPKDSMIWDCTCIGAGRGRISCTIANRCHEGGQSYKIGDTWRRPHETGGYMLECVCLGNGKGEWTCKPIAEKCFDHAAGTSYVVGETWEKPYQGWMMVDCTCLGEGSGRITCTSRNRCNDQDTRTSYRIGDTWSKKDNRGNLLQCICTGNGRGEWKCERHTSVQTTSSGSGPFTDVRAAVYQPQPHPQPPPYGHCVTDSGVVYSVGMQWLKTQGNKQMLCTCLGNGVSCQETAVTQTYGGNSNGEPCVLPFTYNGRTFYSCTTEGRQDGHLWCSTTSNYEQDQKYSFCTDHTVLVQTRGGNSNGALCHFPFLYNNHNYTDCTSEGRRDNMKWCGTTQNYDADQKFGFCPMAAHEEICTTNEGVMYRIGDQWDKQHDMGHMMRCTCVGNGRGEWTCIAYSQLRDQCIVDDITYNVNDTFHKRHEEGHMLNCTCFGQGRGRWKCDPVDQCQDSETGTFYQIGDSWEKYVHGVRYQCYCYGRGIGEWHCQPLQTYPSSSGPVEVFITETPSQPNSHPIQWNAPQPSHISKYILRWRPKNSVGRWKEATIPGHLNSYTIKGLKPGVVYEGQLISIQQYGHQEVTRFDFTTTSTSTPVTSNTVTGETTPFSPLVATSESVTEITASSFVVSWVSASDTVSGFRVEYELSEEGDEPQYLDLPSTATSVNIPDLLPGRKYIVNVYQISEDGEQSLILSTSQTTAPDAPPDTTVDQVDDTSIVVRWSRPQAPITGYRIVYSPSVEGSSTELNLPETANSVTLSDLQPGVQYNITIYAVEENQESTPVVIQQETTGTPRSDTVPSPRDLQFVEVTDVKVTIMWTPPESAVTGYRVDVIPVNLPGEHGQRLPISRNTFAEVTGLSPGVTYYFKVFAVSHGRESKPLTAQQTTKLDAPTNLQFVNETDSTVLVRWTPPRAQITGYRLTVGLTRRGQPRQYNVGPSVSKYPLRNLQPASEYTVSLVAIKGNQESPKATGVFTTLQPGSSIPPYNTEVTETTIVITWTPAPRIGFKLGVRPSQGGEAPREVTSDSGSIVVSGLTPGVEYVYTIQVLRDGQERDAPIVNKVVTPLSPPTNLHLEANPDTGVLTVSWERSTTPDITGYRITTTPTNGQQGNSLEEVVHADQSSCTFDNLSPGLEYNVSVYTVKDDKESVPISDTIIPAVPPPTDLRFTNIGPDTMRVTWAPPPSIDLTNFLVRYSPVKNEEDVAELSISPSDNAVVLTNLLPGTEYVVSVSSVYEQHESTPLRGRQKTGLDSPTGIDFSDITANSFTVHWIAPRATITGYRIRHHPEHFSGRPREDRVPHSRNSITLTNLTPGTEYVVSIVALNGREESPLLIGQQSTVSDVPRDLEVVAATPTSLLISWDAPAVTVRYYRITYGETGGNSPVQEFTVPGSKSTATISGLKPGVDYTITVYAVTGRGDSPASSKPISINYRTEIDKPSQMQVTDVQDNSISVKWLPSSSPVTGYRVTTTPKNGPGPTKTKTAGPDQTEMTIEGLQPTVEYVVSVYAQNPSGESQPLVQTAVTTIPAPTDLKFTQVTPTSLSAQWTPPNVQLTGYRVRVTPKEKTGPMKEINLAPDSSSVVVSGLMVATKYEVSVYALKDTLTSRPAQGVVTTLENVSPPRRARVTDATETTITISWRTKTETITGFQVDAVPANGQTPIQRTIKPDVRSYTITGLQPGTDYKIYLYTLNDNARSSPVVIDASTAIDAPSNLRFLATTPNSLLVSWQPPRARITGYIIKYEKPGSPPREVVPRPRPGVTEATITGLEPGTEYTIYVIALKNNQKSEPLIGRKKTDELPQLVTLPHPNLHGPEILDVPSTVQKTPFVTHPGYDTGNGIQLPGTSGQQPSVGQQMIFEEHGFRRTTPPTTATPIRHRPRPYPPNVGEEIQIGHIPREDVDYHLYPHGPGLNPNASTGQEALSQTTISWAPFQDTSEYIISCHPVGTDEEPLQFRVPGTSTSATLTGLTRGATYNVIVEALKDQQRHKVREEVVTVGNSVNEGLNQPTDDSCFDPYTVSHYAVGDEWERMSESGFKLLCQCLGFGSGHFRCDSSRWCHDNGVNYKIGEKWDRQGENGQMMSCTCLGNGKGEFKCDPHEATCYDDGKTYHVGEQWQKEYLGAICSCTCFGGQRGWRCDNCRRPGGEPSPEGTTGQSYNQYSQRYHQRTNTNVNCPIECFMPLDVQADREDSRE
Chain of UniProt P02769 (P02769 25-607 limits assumed): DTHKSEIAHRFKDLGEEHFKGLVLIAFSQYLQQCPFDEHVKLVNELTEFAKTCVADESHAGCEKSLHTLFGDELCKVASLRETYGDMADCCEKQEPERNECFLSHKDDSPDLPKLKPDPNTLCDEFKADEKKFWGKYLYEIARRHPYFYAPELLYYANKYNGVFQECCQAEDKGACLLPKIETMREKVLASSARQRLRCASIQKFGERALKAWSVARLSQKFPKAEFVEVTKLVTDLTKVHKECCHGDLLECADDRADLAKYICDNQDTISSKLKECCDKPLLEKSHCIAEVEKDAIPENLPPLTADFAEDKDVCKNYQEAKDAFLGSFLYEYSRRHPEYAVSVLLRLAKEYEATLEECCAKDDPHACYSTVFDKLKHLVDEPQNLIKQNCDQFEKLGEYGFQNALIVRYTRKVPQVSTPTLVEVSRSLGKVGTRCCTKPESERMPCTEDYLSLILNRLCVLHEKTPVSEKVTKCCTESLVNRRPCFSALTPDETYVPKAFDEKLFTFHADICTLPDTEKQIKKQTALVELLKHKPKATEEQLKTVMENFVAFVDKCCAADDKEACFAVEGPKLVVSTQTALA

For the substance “mucus adhesion promoting (mapA) protein of Lactobacillus reuteri”, the Relative mapA Binding (relative density) in data set [1] is 0.76; in data set [2], 0.67; in data set [3], 0.83; in data set [4], 1.02; in data set [5], 2.57; in data set [6] it was 0.78.

Consider HN001 peptidase pepO, for which, in data set [7], the “height of the HPLC peak of unhydrolysed αs1-casein(1-17) after incubation with pepO-transformed HN001 (non-transformed: approximately 250 mAU)” value is reported as “the major peak of unhydrolysed αs1-casein(1-17) had a height of approximately 150 mAU”.
